US20240109962A1 (SPARX BIOSCIENCE, published 2024)

Legend:
[1] = biological target: LILRB2 antigen of the ELISA of Table 5 (format not specified) (UniProt Q8N423 22-460, limits assumed); test: ELISA, antibody titration
[2] = biological target: T1, human LILRB2 expressed on cells (293T-LILRB2, CHO-K1-LILRB2) (human, UniProt Q8N423 22-597); test: flow cytometry, 293T-LILRB2 cells
T1 construct: whole, on cells; the cell line is named under assay; also called HEK293T-LILRB2
Excerpt: The fluorescent signals were detected by flow cytometry.

[3] = biological target: T2, recombinant human LILRB2 protein (human, UniProt Q8N423 22-460, limits assumed); test: ELISA, coated recombinant human LILRB2; design: unit not given here
T2 construct: also called recombinant LILRB2 protein
Procedure: This affinity maturation library was screened against human LILRB2 to identify antibodies having high binding affinity to LILRB2. Briefly, an ELISA plate was coated with 0.1 ug/well recombinant human LILRB2 protein. Serial diluted maturated h#2E1 antibodies were incubated in the LILRB2 coated plate for 2 hrs. The plate was washed and a secondary HRP-labeled anti-human IgG was then added to each well. After being incubated at room temperature for 1 hour, the colorimetric ELISA signals were developed by adding the TMB substrate and reaction was stopped by 1M H3PO4. Table 7 below provides binding activities of exemplary matured antibodies to recombinant LILRB2 protein.

[4] = biological target: T1, human LILRB2 expressed on cells …; test: flow cytometry, blockade of His-tagged HLA-G tetramer binding to 293T-LILRB2 cells; fit table under the graph
Procedure: Serial diluted humanized LILRB2 antibodies were then added to the mixture and incubated at room temperature for another 45 minutes. The binding of HLA-G/LILRB2 was detected afterwards using a secondary PE-labeled anti-His tag antibody via flow cytometry.

T2 sequence (Q8N423 22-460 limits assumed): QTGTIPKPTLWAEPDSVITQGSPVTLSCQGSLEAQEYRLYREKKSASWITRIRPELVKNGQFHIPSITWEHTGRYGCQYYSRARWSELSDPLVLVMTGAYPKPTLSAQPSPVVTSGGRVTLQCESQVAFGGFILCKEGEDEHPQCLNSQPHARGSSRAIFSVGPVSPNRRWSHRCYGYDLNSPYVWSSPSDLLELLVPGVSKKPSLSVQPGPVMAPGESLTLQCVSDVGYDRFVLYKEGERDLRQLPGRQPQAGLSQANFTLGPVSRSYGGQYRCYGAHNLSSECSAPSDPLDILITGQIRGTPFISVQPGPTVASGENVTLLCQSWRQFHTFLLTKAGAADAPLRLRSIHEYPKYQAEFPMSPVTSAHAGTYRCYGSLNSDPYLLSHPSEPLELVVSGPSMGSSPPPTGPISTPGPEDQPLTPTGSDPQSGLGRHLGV
T1 sequence (Q8N423 22-597): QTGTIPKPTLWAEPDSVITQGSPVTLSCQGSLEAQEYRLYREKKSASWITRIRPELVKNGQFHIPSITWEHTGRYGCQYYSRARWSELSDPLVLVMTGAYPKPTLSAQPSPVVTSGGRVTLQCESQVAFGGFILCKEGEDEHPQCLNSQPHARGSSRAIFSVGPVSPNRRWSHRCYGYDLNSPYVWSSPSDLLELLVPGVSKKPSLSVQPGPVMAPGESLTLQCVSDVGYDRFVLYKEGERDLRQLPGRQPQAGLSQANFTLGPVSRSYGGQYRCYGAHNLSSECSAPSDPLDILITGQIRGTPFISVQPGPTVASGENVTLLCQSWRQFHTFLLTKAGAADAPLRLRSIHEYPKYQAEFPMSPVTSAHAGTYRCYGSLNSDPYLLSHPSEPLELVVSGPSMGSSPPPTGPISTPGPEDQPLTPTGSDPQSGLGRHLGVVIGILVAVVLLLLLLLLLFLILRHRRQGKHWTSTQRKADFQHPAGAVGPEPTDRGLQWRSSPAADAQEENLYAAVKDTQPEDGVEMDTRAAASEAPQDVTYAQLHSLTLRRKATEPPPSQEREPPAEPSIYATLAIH
Sequence of LILRB2 antigen of the ELISA of Table 5 (format not specified) (Q8N423 22-460 limits assumed): as the sequence (Q8N423 22-460 limits assumed) above

Kd [1] [nM]	Bmax [2]	Bmax [3]	IC50 [4] [nM]	Binder
11.7				Antibody 13C4 (antibody, V domains shown, Mouse hybridoma mAb purified from ascites) VH: QIHLVQSGPELKKPGETVKISCKASGYTFTNYGMNWVKQAPGKALKWMGWMNTYIGEPTYADDFKGRFAFSLETSASTAYLQINNLKNEDMATYFCARRGDYASYYFDYWGQGTTLTVSS VL: DIVLTQSPATLSVTPGDSVSLSCRASQNINNNLHWYHQKSHESPRLLIKYASQSISGIPSRVSGSGSGTDFTLSIVTVETEDFGMFFCQQSNSWPHTFGGGTKLEIR
	688000	1.56		Antibody 2E1_GF8 (antibody, V domains shown) VH: EVQLVESGGGLVQPGGSLRLSCAVSGYSITSGYYWWWIRQAPGKGLEWVAYISYDGNNNYNPSLKNRFTISRDTSKNTFYLQMNSLRAEDTAVYYCAREESTMITTAWFAYWGQGTLVTVSS VL: DIQMTQSPSSLSASVGDRVTITCRGSENIYSNLAWYQQKPGKAPKLLIYGATNLASGVPSRFSGSGSGTDYTLTISSLQPEDFATYYCQHFWDTPYTFGQGTKVEIK
	646000	1.51		Antibody 2E1_GH4 (antibody, V domains shown) VH: EVQLVESGGGLVQPGGSLRLSCAVSGYSITSGYYWWWIRQAPGKGLEWVAYISYDGNNNYNPSLKNRFTISRDTSKNTFYLQMNSLRAEDTAVYYCAREESTMITTAWFAYWGQGTLVTVSS VL: DIQMTQSPSSLSASVGDRVTITCRASENIYSNLAWYQQKPGKAPKLLIYGATNFASGVPSRFSGSGSGTDYTLTISSLQPEDFATYYCQHFWDTPYTFGQGTKVEIK
	641000	1.14		Antibody 2E1_GH3 (antibody, V domains shown) VH: EVQLVESGGGLVQPGGSLRLSCAVSGYSITSGYYWNWIRQAPGKGLEWVAYISYDGNNNYNPSLKNRFTISRDTSKNTFYLQMNSLRAEDTAVYYCAREESTMITTAWFAYWGQGTLVTVSS VL: DIQMTQSPSSLSASVGDRVTITCRASENIYSNLAWYQQKPGKAPKLLIYGATNLSSGVPSRFSGSGSGTDYTLTISSLQPEDFATYYCQHFWDTPYTFGQGTKVEIK
	743000	1.58		Antibody 2E1_GH11 (antibody, V domains shown) VH: EVQLVESGGGLVQPGGSLRLSCAVSGYSITSGYYWWWIRQAPGKGLEWVAYISYDGNNNYNPSLKNRFTISRDTSKNTFYLQMNSLRAEDTAVYYCAREESTMITTAWFAYWGQGTLVTVSS VL: DIQMTQSPSSLSASVGDRVTITCNASENIYSNLAWYQQKPGKAPKLLIYGATNLASGVPSRFSGSGSGTDYTLTISSLQPEDFATYYCQHFWDTPYTFGQGTKVEIK
	688000	1.56		Antibody 2E1_GG1 (antibody, V domains shown) VH: EVQLVESGGGLVQPGGSLRLSCAVSGYSITSGYAWNWIRQAPGKGLEWVAYISYDGNNNYNPSLKNRFTISRDTSKNTFYLQMNSLRAEDTAVYYCAREESTMITTAWFAYWGQGTLVTVSS VL: DIQMTQSPSSLSASVGDRVTITCRASENIYSNLAWYQQKPGKAPKLLIYGATNLASGVPSRFSGSGSGTDYTLTISSLQPEDFATYYCQHFWDTPYTFGQGTKVEIK
			~0.833	chimeric 9B6 (antibody, V domains shown) VH: DVQLVESGGGLVQPGWSRILSCAASGFTFSNFGMHWVRQAPEKGLEWVAYISSGSGTIYYSDTVRGRFTISRDNPKNTLFLLMTSLRSEDTAMYYCTRSDYDGDWFFDVWGAGTTVTVSS VL: DIVMTQSHRFLSTSVGDRVTITCKASQDVTTAVAWCQQKPGQSPKLLIYSASFRYTGVPDRFTGSGSGTDFTFTINNVQAEDLALYYCQQHFTTPLTFGAGTKLELK
